{"source": "paper PMC7501274", "key": {"[1]": {"target": "CsaC-H228A (Neisseria meningitidis serogroup A)", "assay": "crystal structure; sitting drop, PEG200, HEPES pH 7.0/7.6; two protein molecules in the asymmetric unit, tetrameric assembly in the crystal packing; apo, CPS-DP4-soaked (wild type) and acetyl-CoA-soaked (H228A) crystals"}, "[2]": {"target": "capsule O-acetyltransferase CsaC, wild type (Neisseria meningitidis serogroup A)", "assay": "AUC; sedimentation velocity (3.0 to 40.9 µM CsaC, 35,000 rpm) and sedimentation equilibrium (9.1 and 40.9 µM CsaC, single species model), 20 °C, 50 mM HEPES pH 7.0, 0.1 M NaCl, 5 mM MgCl2, 1 mM EDTA"}, "[3]": {"target": "capsule O-acetyltransferase CsaC, wild type (Neisseria meningitidis serogroup A)", "assay": "crystal structure; sitting drop, PEG200, HEPES pH 7.0/7.6; two protein molecules in the asymmetric unit, tetrameric assembly in the crystal packing; apo, CPS-DP4-soaked (wild type) and acetyl-CoA-soaked (H228A) crystals"}}, "data": [{"substance": "CsaC-H228A (enzyme)", "values": [{"measurement": "stoichiometry N", "setting": "[1]", "result": 4}]}, {"substance": "capsule O-acetyltransferase CsaC, wild type (enzyme)", "values": [{"measurement": "stoichiometry N", "setting": "[2]", "result": 4}, {"measurement": "stoichiometry N", "setting": "[3]", "result": 4}]}]}
